From paper PMC2680719

Biological target: m33 T cell receptor (high-affinity CDR3α mutant of 2C, displayed on 58−/− T cell hybridoma cells) (mouse)
Assay: flow cytometry on cells

SIYRYYGL/K^b tetramer (biotinylated SIY/K^b monomers on streptavidin:phycoerythrin) (from UniProt P01887 21-119) (peptide-MHC)
percent of cells positive for tetramer: 84%
